The values that follow come from US20210139607A1 (JACKSON LABORATORY, published 2021).

The assay addresses T1, human N-glycanase 1 (NGLY-1) (human, UniProt Q96IV0 2-654).
T1 construct: Endogenous protein in cell lysates, denatured on immunoblots; also called human NGLY1 protein
T1 sequence (looked up): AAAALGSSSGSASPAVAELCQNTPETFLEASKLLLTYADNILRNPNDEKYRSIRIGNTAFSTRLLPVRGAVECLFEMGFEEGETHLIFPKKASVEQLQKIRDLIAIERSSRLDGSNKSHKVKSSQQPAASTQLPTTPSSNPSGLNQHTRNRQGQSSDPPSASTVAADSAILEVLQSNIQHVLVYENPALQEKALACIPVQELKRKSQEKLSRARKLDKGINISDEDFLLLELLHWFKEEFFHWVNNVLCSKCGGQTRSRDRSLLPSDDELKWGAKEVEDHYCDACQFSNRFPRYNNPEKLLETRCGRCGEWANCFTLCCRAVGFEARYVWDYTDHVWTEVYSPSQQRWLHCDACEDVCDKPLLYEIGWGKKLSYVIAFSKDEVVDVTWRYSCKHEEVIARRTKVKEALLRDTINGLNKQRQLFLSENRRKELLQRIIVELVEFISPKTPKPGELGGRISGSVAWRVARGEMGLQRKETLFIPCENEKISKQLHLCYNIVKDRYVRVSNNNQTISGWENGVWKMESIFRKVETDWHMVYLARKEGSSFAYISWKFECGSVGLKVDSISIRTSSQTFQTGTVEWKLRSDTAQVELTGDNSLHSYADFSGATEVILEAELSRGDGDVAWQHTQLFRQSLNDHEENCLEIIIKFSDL
In words: immunoblot on isogenic human NGLY1 null and wild type iPS cell lines. As for the experimental part: The conjugate was injected into female BALB/cJ mice at a dose of 10 μg per mouse with Alum adjuvant. Mice were immunized by i.p injection three times approximately two (2) weeks apart. Ten days after the third immunization, splenocytes were isolated and fused with SP2 myeloma cells to create hybridoma cell lines. Hybridomas were cultured in 96-well plates and supernatants screened on protein arrays and by ELISA. Positive clones were further validated by western blot using lysates prepared from C57BL/6J and the CRISPR/Cas9 generated null strain as positive and negative controls. Additional immunoblots were used to identify additional clones that generated antibodies capable of cross reacting with human NGLY1 protein. Isogenic human derived NGLY1 null and wild type iPS cell lines providing positive and negative controls evaluation of anti-human NGLY1 cross-reactivity were provided. A single hybridoma gave rise to clone 5G8 that generated an antibody that was specific to both murine and human NGLY1 protein and was used for subsequent studies.
Background: A western blot detects proteins with antibodies after separation by electrophoresis.

B1: mouse anti-NGly-1 monoclonal antibody, clone 5G8 (antibody, V domains shown)
VH: QVQLQQSGAELVRPGTSVKVSCKASGYAFINYLIEWVKQRPGQGLEWIGIISPGSGSTNYNEEFRGRATLTADRSSSTAYMQLSSLTSDDSAVYFCARGGLTHYSGSTYEEGFDFWGQGTTLTVSS
VL: QAVVTQESALTTSPGETVTLTCRSSTGAVTTTNYANWVQEKPDHLFTGLIGGTNNRAPGVPARFSGSLIGDKAALTITGAQTDDEAIYFCALWYSNRWVFGGGTKLTVLG
notes: also called anti-NGly-1 monoclonal antibody of the present disclosure; Mouse monoclonal (anti-mouse peptide), JAX Monoclonal Service
As to B1, the binding result is given as “binds”.
